# T1: human ASIC3 (human, UniProt Q9UHC3 1-531)
# T1 construct: whole, on cells; Expressed on 3T3 cells (3T3/hASIC3) or HEK293 cells (HEK/hASIC3-QCells); also called hASIC3
# T1 sequence (looked up): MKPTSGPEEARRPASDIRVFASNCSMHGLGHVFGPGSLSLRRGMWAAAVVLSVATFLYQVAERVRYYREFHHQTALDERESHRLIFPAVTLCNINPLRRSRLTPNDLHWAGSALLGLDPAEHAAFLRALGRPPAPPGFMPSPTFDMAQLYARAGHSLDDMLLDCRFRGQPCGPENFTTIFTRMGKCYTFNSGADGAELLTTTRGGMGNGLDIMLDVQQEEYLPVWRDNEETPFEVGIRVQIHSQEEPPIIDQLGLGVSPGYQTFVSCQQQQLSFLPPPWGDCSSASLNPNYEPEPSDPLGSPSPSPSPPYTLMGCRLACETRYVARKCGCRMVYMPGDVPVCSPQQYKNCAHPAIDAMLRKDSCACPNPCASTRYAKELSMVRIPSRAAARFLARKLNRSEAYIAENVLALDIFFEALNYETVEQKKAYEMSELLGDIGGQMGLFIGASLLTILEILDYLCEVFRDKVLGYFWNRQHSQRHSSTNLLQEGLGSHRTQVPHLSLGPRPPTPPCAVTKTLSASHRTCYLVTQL
# T2: human ASIC1 (human, UniProt P78348 1-528)
# T2 sequence: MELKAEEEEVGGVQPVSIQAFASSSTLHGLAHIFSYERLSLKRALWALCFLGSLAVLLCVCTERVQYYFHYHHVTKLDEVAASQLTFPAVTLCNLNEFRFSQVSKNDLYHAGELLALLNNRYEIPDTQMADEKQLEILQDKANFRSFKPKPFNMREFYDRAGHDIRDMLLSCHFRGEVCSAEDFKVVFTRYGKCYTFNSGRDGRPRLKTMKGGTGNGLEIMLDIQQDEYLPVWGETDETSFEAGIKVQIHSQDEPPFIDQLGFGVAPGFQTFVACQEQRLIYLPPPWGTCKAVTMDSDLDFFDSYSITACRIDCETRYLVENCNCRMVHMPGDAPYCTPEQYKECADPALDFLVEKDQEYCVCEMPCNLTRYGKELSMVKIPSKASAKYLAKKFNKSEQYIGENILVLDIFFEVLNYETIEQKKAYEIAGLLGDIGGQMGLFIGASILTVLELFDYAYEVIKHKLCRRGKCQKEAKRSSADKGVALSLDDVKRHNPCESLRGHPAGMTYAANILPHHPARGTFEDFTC
# T3: human ASIC1/ASIC3 channels (co-expressed human ASIC1a and human ASIC3) (human, UniProt Q9UHC3 1-531)
# T3 construct: whole, on cells; 3T3 cells co-expressing both subunits; also called 3T3/hASIC1/3; 3T3-hASIC1/ASIC3
# T3 sequence 1: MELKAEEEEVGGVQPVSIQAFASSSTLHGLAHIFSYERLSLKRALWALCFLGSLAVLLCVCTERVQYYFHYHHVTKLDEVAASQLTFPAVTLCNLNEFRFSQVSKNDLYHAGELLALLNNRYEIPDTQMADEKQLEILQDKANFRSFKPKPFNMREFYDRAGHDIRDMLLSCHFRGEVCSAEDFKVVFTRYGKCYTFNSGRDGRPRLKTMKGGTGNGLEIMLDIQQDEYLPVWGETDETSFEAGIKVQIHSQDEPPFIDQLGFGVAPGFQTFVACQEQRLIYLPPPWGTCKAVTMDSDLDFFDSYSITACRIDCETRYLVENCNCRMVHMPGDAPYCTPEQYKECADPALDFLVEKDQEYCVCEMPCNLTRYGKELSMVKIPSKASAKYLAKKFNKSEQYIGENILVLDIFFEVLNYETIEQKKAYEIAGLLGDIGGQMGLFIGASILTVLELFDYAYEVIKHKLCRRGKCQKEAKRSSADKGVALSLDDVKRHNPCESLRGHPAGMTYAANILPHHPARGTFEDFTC
# T3 sequence 2: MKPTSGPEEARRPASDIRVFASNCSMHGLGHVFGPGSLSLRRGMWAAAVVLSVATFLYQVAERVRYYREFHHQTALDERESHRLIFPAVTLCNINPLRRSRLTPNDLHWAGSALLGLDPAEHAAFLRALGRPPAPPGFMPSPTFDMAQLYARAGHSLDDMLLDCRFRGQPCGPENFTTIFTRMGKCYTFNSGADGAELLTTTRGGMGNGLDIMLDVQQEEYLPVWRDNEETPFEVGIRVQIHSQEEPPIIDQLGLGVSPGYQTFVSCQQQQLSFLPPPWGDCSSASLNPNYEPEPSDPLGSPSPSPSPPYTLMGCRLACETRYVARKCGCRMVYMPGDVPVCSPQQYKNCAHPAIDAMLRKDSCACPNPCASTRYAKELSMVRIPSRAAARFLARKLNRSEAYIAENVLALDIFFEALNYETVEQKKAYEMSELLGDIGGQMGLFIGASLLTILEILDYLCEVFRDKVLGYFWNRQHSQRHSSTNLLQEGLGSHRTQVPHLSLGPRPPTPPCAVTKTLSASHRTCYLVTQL
# T4: mouse ASIC1a (mouse, UniProt Q6NXK8 1-526)
# T4 sequence (looked up): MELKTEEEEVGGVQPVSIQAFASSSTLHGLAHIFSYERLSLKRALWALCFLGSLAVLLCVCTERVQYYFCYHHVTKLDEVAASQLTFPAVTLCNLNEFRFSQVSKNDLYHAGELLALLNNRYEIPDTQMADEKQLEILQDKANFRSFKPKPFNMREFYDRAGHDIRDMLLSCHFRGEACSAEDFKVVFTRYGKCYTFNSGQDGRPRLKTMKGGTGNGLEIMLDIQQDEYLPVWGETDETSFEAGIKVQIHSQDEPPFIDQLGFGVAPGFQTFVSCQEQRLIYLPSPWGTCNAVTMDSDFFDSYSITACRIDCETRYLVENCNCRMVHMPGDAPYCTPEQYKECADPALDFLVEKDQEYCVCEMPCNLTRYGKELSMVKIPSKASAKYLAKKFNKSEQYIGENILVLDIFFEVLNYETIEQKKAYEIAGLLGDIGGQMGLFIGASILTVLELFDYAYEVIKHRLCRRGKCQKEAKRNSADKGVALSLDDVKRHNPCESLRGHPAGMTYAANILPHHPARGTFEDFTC
# B1: H3M6715N (antibody, V domains shown)
# VH: EELVLESGGGLVQPGGSLRLSCAASGFMFSTYAMSWVRQAPGKGLEWVSLISGRDGNTYYADSVKGRFTISRDNSRNTLYLQLNSLRAEDTALYYCAKDTAVVPGYGMDVWGQGTTVTVSS
# VL: DIQMTQSPATLSASVGDRVTITCRASQTISNWLAWYQQRPGKAPKLLIYKASSLETGVPSRFSGSGSGTEFTLTISSLQPDDFASYYCQQYNSYSWTFGQGTKVEIK
# notes: Chimeric: human variable, mouse constant domains; H3M prefix marks the Fc, isotype not spelled out
# B2: H3M6760N (antibody, V domains shown)
# VH: EDRVLESGGGLVQPGGSLRLSCAASGFMFSSYAMSWVRQAPGKGLEWVSLISGRDGNTYYADSVKGRFTISRDNSRNTLYLQLNSLRAEDTAVYYCAKDTAVVPGYGMDVWGQGTTVTVSS
# VL: DIQMTQSPSTLSASVGDRVTITCRASQSISNWLAWYQQRPGKAPKLLIYKASSLESGVPSRFSGSGSGTEFTLTISSLQPDDFASYYCQQYNSYSWTFGQGTKVEIK
# notes: as for B1
# B3: H3M6713N (antibody, V domains shown)
# VH: EELVLESGGGLVQPGGSLRLSCAASGFMFSTYAMSWVRQAPGKGLEWVSLISGRDGSTYYADSVKGRFTISRDISRNTLYLHLNSLRAEDTAVYYCAKDTAVVPGYGLDVWGQGTTVTVSS
# VL: DIQMTQSPATLSASVGDRVTITCRASQTISNWLAWYQQRPGKAPKLLIYKASSLETGVPSRFSGSGSGTEFTLTISSLQPDDFASYYCQQYNSYSWTFGQGTKVEIK
# notes: as for B1
# B4: H3M7118N (antibody, V domains shown)
# VH: EVQLLESGGGLVQPGGSLRLSCAASGFTFRNYAMSWVRQAPGKGLEWVSAINGGGDSTYYADSVKGRFTISRDNSKNTLYLQMNSLRAEDTAVYYCAKEEGDWNYVGYGYYYYYGMDVWGQGTTVTVSS
# VL: DIQMTQSPSSMSASVGDRVTITCRASQGISSWLAWYQQKPGKAPKLLIYAASSLQSGVPSRFSGSGSGTDFTLTIRSLQPEDFATYYCQQANSFPYTFGQGTKLEIK
# notes: as for B1
# B5: H1M6712N (antibody, mouse IgG1, V domains shown)
# VH: QVQLVQSGAEVKKPGASMKVSCKASGYTFTIYDINWVRQATGQGLEWMGWMNPRSGSTGYSQKFQGRVTMTRNTSINTAFMELSSLRSDDTAVYYCVRGQLVLGYWGQGTLVTVSS
# VL: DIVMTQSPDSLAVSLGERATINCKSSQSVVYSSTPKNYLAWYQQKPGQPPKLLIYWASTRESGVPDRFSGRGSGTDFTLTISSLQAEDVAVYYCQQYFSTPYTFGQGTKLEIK
# B6: H4H6721N2 (antibody, human IgG4, V domains shown)
# VH: EVQLLASGGGLVQPGGSLRLSCAASGFTFSSFAMSWVRQAPGKGLEWVSGISGSGVSTYYADSVKGRFTISRDNSKNTLYLQMNSLRAEDTAAYYCAKEAYKWQPWGQGTLVTVSS
# VL: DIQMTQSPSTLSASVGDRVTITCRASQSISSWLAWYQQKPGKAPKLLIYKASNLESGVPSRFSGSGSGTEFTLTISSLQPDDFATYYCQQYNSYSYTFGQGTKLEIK
# B7: H4H7101N (antibody, human IgG4, V domains shown)
# VH: EVQLLASGGGLVQTGGSLRLSCAASGFTFSSFAMSWVRQAPGKGLEWVSGISGSGGSTYYADSVKGRFTISRDNSKNTLYLQMNSLRAEDTAAYYCAKEAYKWQPWGQGIRVTVSS
# VL: DIQMTQSPSTLSASVGDRVTITCRASQSISSWLAWYQQKPGKAPNLLIYKTSNLESGVPSRFSGSGSGTEFTLTISSLQPDDFATYYCQQYNSYSYTFGQGTKLEIK
# Tests used:
# human ASIC3 [1] = biological target: T1, human ASIC3; test: FACS, 3T3/hASIC3 cells
# Text: (§1) For these experiments, four cell lines were constructed: (a) a mouse fibroblast 3T3 cell line stably transfected to overexpress full length human ASIC3 (3T3/hASIC3; amino acids 1-531 of NCBI accession number NP_{—}004760.1), (b) a 3T3 cell line stably transfected to co-express full length human ASIC1a and human ASIC3 (3T3/hASIC1/3; amino acids 1-528 of NCBI accession number NP_{—}001086.2 and amino acids 1-531 of NCBI accession number NP_{—}004760.1), (c) […] a stably transfected 3T3 cell line expressing the full-length mouse ASIC3 channel (3T3/mASIC3; amino acids 1-530 of NCBI accession number NP_{—}892045.2), and (d) a 3T3 cell line stably transfected to co-express full length mouse ASIC1a and mouse ASIC3 (3T3/mASIC1/3; amino acids 1-526 of NCBI accession number NP_{—}033727 and amino acids 1-530 of NCBI accession number NP_{—}892045.2). Antibody binding was determined using flow cytometry (FACS).
# (§2) To perform the FACS binding experiments, adherent cells were collected with cold Millipore Accutase 3-5 minutes, spun and resuspended in ice-cold FACS buffer (PBS, 2% HI-FBS and 0.09% Na-azide). Anti-ASIC1 antibody at final concentrations of 10 nM was added for 20-30 minutes on ice. Cells were washed with 900 μL ice-cold FACS buffer, spun, and resuspended in 100 μL ice-cold FACS buffer. A secondary antibody which recognizes human Fc (Jackson Immuno Research, #109-136-098) and is conjugated to allophycocyanin, was then added to the cell mixture at a final concentration of 2.5 ug/mL. After incubating for 20 minutes on ice, the cells were washed and resuspended in FACS buffer, then sorted and analyzed on a flow cytometer (FACSCanto II, BD Biosciences, San Jose, Calif.) to determine relative binding by the candidate antibodies to the tested cell lines. Histograms of cells stained with anti-ASIC1 antibodies were compared with those of cells stained with secondary antibody alone. Percentage of ASIC1 signal over secondary antibody alone was calculated using FlowJo software (Tree Star, Ashland, Oreg.).
# human ASIC1 [2] = biological target: T2, human ASIC1; test: cell-based or functional assay
# human ASIC1 [3] = biological target: T2, human ASIC1; test: FACS titration, 3T3/hASIC1 cells
# Procedure: To perform the FACS binding experiments, adherent cells were collected using 1 mM EDTA in PBS, then washed, and re-suspended in cold PBS containing 5% FBS. For each binding experiment, each anti-ASIC1 antibody ([…] or ND7 cells) was added to 250,000 cells in 500 μL of PBS with 5% FBS. After incubation for 20 minutes at room temperature, a secondary antibody which recognizes human Fc (Cat. No. 109-136-098, Jackson ImmunoResearch Laboratories, Inc., West Grove, Pa.) or mouse Fc (Cat. No. 550826, BD Biosciences, San Jose, Calif.) and is conjugated to allophycocyanin, was then added to the cell mixture at a final concentration of 13.3 nM. After incubating for 20 minutes on ice, the cells were washed and resuspended in PBS containing 5% FBS, then sorted and analyzed on a flow cytometer (FACSCalibur, BD Biosciences, San Jose, Calif.) to determine relative binding by the candidate antibodies to the tested cell lines. Histograms of cells stained with anti-ASIC1 antibodies were compared with those of cells stained with secondary antibody alone. Percentage of ASIC1 signal over secondary antibody alone was calculated using FlowJo software (Tree Star, Ashland, Oreg.).
# [4] = biological target: T3, human ASIC1/ASIC3 channels …; test: FACS, 3T3/hASIC1/3 cells, 10 nM antibody
# Text: as §1, §2
# human ASIC1 [5] = biological target: T2, human ASIC1; test: cell-based or functional assay; remark: listed apart in the source
# mouse ASIC1a = biological target: T4, mouse ASIC1a; test: cell-based or functional assay
# human ASIC1 [6] = biological target: T2, human ASIC1; test: cell-based or functional assay; remark: listed apart in the source
# human ASIC3 [7] = biological target: T1, human ASIC3; test: FACS, 3T3/hASIC3 cells, 10 nM antibody
# Text: as §1, §2
Binder,binding result (human ASIC3 [1]),"FLIPR Dose Curve, pH 5.0 % Block (human ASIC1 [2])","FLIPR Dose Curve, pH 5.5 % Block (human ASIC1 [2])","FLIPR Dose Curve, pH 5.5 IC50 (human ASIC1 [2])",EC50 (human ASIC1 [3]),binding result [4],"Current inhibition (%) at 100 nM antibody, Q-Patch, pH 6.0 (human ASIC1 [5])","FLIPR Dose Curve, pH 5.0 IC50 (human ASIC1 [2])","apparent IC50, mouse ASIC1 current, Q-Patch (mouse ASIC1a)","apparent IC50, human ASIC1 current, Q-Patch (human ASIC1 [6])",binding result (human ASIC3 [7])
B1,no binding (tested: 10 nM; gated lower than 1%),10%,39%,0.1 nM,72 pM,binds,30%,–,–,–,–
B2,no binding (tested: 10 nM; gated lower than 1%),56%,71%,0.9 nM,853 pM,binds,–,1 nM,–,–,–
B3,no binding (tested: 10 nM; gated lower than 1%),23%,63%,0.2 nM,215 pM,binds,–,–,–,–,–
B4,–,–,–,–,> 67000 pM,–,–,–,< 25000 pM,≤ 10000 pM,–
B5,–,10%,64%,6 nM,< 100 pM,binds,0%,–,–,–,binds
B6,no binding (tested: 10 nM; gated lower than 1%),–,–,–,1700 pM,binds,–,–,–,< 1000 pM,–
B7,no binding (tested: 10 nM; gated lower than 1%),–,–,–,–,binds,–,–,–,–,–
